This assay has as its target bovine serum albumin (bovine, UniProt P02769 25-607). The experiment in a line: GM1-ELISA binding assay. In general terms: ELISA stands for enzyme-linked immunosorbent assay.

bovine serum albumin, sequence (P02769 25-607 limits assumed): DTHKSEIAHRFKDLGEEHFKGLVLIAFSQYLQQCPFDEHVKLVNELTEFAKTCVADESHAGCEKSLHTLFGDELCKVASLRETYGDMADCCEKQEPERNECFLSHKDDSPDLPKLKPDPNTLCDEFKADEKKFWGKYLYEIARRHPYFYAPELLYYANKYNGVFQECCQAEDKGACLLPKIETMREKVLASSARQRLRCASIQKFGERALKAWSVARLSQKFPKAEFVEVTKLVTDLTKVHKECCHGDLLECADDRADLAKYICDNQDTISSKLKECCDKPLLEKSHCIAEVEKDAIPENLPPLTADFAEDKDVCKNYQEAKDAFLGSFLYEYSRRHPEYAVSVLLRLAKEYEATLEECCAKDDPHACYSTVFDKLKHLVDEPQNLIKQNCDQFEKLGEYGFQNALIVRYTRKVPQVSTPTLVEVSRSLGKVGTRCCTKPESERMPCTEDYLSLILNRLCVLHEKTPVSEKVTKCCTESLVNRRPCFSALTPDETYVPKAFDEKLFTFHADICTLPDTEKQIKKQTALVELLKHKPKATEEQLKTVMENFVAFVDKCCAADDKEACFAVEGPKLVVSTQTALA

B1: bacterial cholera toxin B subunit (CTB), pentameric (other)
chain: TPQNITDLCAEYHNTQIYTLNDKIFSYTESLAGKREMAIITFKNGAIFQVEVPGSQHIDSQKKAIERMKDTLRIAYLTEAKVEKLCVWNNKTPHAIAAISMAN
With B1, the binding result is given as “no binding”.

(Values after patent publication US20030165543A1 (LOMA LINDA UNIVERSITY, published 2003).)
